From PMC7679967 come the findings set out here.

For the test, the target named is human Hsp90β (HSP90AB1) (human) (UniProt P08238). Description: SEC-MALS. For orientation: Size exclusion chromatography separates by hydrodynamic size, large species first.

Usually stoichiometry N stands for a count of units in the complex or per binding partner.

human Hsp90β (HSP90AB1), P08238 1-724 (natural protein; other documents disagree on this pair), sequence (P08238 whole entry): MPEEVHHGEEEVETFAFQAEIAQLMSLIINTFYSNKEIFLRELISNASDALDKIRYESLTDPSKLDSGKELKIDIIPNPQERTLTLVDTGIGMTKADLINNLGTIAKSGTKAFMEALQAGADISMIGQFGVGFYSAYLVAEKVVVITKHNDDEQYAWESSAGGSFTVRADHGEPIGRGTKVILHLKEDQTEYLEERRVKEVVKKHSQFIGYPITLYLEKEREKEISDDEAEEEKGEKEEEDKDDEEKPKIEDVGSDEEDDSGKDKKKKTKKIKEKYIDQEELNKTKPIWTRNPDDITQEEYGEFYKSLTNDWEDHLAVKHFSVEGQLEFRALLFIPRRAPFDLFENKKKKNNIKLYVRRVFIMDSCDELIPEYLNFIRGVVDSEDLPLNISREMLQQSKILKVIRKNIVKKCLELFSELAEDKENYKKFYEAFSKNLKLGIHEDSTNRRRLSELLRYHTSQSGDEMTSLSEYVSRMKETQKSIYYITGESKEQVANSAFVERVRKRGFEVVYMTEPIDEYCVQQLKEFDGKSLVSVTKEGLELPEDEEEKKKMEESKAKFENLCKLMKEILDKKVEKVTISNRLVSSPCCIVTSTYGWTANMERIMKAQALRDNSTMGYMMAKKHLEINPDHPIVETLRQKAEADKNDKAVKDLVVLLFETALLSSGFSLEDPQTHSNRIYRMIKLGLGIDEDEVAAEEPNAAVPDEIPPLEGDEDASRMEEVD

For the substance “human Hsp90β (HSP90AB1), P08238 1-724 (natural protein; other documents disagree on this pair)”, the stoichiometry N worked out at 2.
